This note sets out measurements from patent publication US20180155451A1 (published 2018).

For this test, the target named is T1, FcγRIIa R (human, UniProt P12318 34-217).
T1 construct: extracellular domain; Soluble extracellular domain with C-terminal His tag, expressed in FreeStyle293 cells; also called FcgRIIa R; FcγRIIa type R; not shown: His tag attached to the C terminus
T1 sequence (looked up): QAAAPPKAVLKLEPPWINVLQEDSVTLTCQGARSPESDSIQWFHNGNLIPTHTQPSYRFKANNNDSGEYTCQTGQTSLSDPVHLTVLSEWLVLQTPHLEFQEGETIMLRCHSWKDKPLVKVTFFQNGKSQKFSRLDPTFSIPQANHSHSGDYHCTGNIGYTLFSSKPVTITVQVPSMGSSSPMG
Description: SPR (Biacore), antibody captured via antigen peptide, FcγRIIa R as analyte; heterodimerized antibody. The method, then:
Analysis of interaction between objective antibody and the FcγR was carried out using Biacore T100 (GE Healthcare). HBS-EP+ (GE Healthcare) was used as the running buffer, and the measurement temperature was set to 25° C. Chips produced by immobilizing the antigen peptide by the amine coupling method to a Series S Sencor Chip CM5 (GE Healthcare), or alternatively, chips produced by allowing preliminarily biotinylated antigen peptides to interact with and immobilize onto a Series S Sensor Chip SA (certified) (GE Healthcare) were used. Antibodies of interest were captured onto an antigen peptide-immobilized chip, and allowed to interact to each FcγR diluted with running buffer. To regenerate and repeatedly use the chip, the antibodies captured on the chip were washed off by reacting 10 mM glycine-HCl, pH 1.5.
A general note: SPR reads the build-up and loss of mass on a sensor chip optically.

B1: GpH7-A5/GpH7-B3 variant K326_16H/GpL16-k0 (antibody, human IgG1, kappa)
heavy 1: not shown
heavy 2: not shown
light: DIVMTQSPLSLPVTPGEPASISCQASESLVHSNRNTYLHWYLQKPGQSPQLLIYKVSNRFSGVPDRFSGSGSGTDFTLKISRVEAEDVGVYYCSQNTHVPPTFGQGTKVEIERTVAAPSVFIFPPSDEQLKSGTASVVCLLNNFYPREAKVQWKVDNALQSGNSQESVTEQDSKDSTYSLSSTLTLSKADYEKHKVYACEVTHQGLSSPVTKSFNRGEC
notes: heterodimerized; mutation in one H chain only; also called He Ab
B1: the He/Con_2aR was 120 % of control (GpH7-A5/GpH7-B3/GpL16-k0 = 100).

B2: GpH7-A5/GpH7-B3 variant S267_02A/GpL16-k0 (antibody, human IgG1, kappa)
heavy 1: not shown
heavy 2: not shown
light: DIVMTQSPLSLPVTPGEPASISCQASESLVHSNRNTYLHWYLQKPGQSPQLLIYKVSNRFSGVPDRFSGSGSGTDFTLKISRVEAEDVGVYYCSQNTHVPPTFGQGTKVEIERTVAAPSVFIFPPSDEQLKSGTASVVCLLNNFYPREAKVQWKVDNALQSGNSQESVTEQDSKDSTYSLSSTLTLSKADYEKHKVYACEVTHQGLSSPVTKSFNRGEC
notes: as for B1
Take B2: the He/Con_2aR was 155 % of control (GpH7-A5/GpH7-B3/GpL16-k0 = 100).

B3: GpH7-A5/GpH7-B3 variant L328_03V/GpL16-k0 (antibody, human IgG1, kappa)
heavy 1: not shown
heavy 2: not shown
light: DIVMTQSPLSLPVTPGEPASISCQASESLVHSNRNTYLHWYLQKPGQSPQLLIYKVSNRFSGVPDRFSGSGSGTDFTLKISRVEAEDVGVYYCSQNTHVPPTFGQGTKVEIERTVAAPSVFIFPPSDEQLKSGTASVVCLLNNFYPREAKVQWKVDNALQSGNSQESVTEQDSKDSTYSLSSTLTLSKADYEKHKVYACEVTHQGLSSPVTKSFNRGEC
notes: as for B1
In the case of B3, the He/Con_2aR is 116 % of control (GpH7-A5/GpH7-B3/GpL16-k0 = 100).

B4: GpH7-A5/GpH7-B3 variant K334_14T/GpL16-k0 (antibody, human IgG1, kappa)
heavy 1: not shown
heavy 2: not shown
light: DIVMTQSPLSLPVTPGEPASISCQASESLVHSNRNTYLHWYLQKPGQSPQLLIYKVSNRFSGVPDRFSGSGSGTDFTLKISRVEAEDVGVYYCSQNTHVPPTFGQGTKVEIERTVAAPSVFIFPPSDEQLKSGTASVVCLLNNFYPREAKVQWKVDNALQSGNSQESVTEQDSKDSTYSLSSTLTLSKADYEKHKVYACEVTHQGLSSPVTKSFNRGEC
notes: as for B1
As for B4, the He/Con_2aR was 112 % of control (GpH7-A5/GpH7-B3/GpL16-k0 = 100).

B5: GpH7-A5/GpH7-B3 variant K334_07I/GpL16-k0 (antibody, human IgG1, kappa)
heavy 1: not shown
heavy 2: not shown
light: DIVMTQSPLSLPVTPGEPASISCQASESLVHSNRNTYLHWYLQKPGQSPQLLIYKVSNRFSGVPDRFSGSGSGTDFTLKISRVEAEDVGVYYCSQNTHVPPTFGQGTKVEIERTVAAPSVFIFPPSDEQLKSGTASVVCLLNNFYPREAKVQWKVDNALQSGNSQESVTEQDSKDSTYSLSSTLTLSKADYEKHKVYACEVTHQGLSSPVTKSFNRGEC
notes: as for B1
In the case of B5, the He/Con_2aR is 114 % of control (GpH7-A5/GpH7-B3/GpL16-k0 = 100).

B6: GpH7-A5/GpH7-B3 variant S239_01G/GpL16-k0 (antibody, human IgG1, kappa)
heavy 1: not shown
heavy 2: not shown
light: DIVMTQSPLSLPVTPGEPASISCQASESLVHSNRNTYLHWYLQKPGQSPQLLIYKVSNRFSGVPDRFSGSGSGTDFTLKISRVEAEDVGVYYCSQNTHVPPTFGQGTKVEIERTVAAPSVFIFPPSDEQLKSGTASVVCLLNNFYPREAKVQWKVDNALQSGNSQESVTEQDSKDSTYSLSSTLTLSKADYEKHKVYACEVTHQGLSSPVTKSFNRGEC
notes: as for B1
Consider B6, for which the He/Con_2aR is 128 % of control (GpH7-A5/GpH7-B3/GpL16-k0 = 100).

B7: GpH7-A5/GpH7-B3 variant L328_06M/GpL16-k0 (antibody, human IgG1, kappa)
heavy 1: not shown
heavy 2: not shown
light: DIVMTQSPLSLPVTPGEPASISCQASESLVHSNRNTYLHWYLQKPGQSPQLLIYKVSNRFSGVPDRFSGSGSGTDFTLKISRVEAEDVGVYYCSQNTHVPPTFGQGTKVEIERTVAAPSVFIFPPSDEQLKSGTASVVCLLNNFYPREAKVQWKVDNALQSGNSQESVTEQDSKDSTYSLSSTLTLSKADYEKHKVYACEVTHQGLSSPVTKSFNRGEC
notes: as for B1
As for B7, the He/Con_2aR was 115 % of control (GpH7-A5/GpH7-B3/GpL16-k0 = 100).

B8: GpH7-A5/GpH7-B3 variant K334_15Y/GpL16-k0 (antibody, human IgG1, kappa)
heavy 1: not shown
heavy 2: not shown
light: DIVMTQSPLSLPVTPGEPASISCQASESLVHSNRNTYLHWYLQKPGQSPQLLIYKVSNRFSGVPDRFSGSGSGTDFTLKISRVEAEDVGVYYCSQNTHVPPTFGQGTKVEIERTVAAPSVFIFPPSDEQLKSGTASVVCLLNNFYPREAKVQWKVDNALQSGNSQESVTEQDSKDSTYSLSSTLTLSKADYEKHKVYACEVTHQGLSSPVTKSFNRGEC
notes: as for B1
In the case of B8, the He/Con_2aR was 108 % of control (GpH7-A5/GpH7-B3/GpL16-k0 = 100).

B9: GpH7-A5/GpH7-B3 variant S267_07I/GpL16-k0 (antibody, human IgG1, kappa)
heavy 1: not shown
heavy 2: not shown
light: DIVMTQSPLSLPVTPGEPASISCQASESLVHSNRNTYLHWYLQKPGQSPQLLIYKVSNRFSGVPDRFSGSGSGTDFTLKISRVEAEDVGVYYCSQNTHVPPTFGQGTKVEIERTVAAPSVFIFPPSDEQLKSGTASVVCLLNNFYPREAKVQWKVDNALQSGNSQESVTEQDSKDSTYSLSSTLTLSKADYEKHKVYACEVTHQGLSSPVTKSFNRGEC
notes: as for B1
For B9, the He/Con_2aR was 111 % of control (GpH7-A5/GpH7-B3/GpL16-k0 = 100).

B10: GpH7-A5/GpH7-B3 variant K334_03V/GpL16-k0 (antibody, human IgG1, kappa)
heavy 1: not shown
heavy 2: not shown
light: DIVMTQSPLSLPVTPGEPASISCQASESLVHSNRNTYLHWYLQKPGQSPQLLIYKVSNRFSGVPDRFSGSGSGTDFTLKISRVEAEDVGVYYCSQNTHVPPTFGQGTKVEIERTVAAPSVFIFPPSDEQLKSGTASVVCLLNNFYPREAKVQWKVDNALQSGNSQESVTEQDSKDSTYSLSSTLTLSKADYEKHKVYACEVTHQGLSSPVTKSFNRGEC
notes: as for B1
On to B10, for which the He/Con_2aR was 117 % of control (GpH7-A5/GpH7-B3/GpL16-k0 = 100).
